Measured values published in patent publication US20150110744A1 (INTER K, published 2015).

Legend:
Assay in all cases: cell-based or functional assay
[1] = target: Akt3 (PKB gamma) (human (printed as '(h)'), UniProt Q9Y243 1-479, limits assumed)
[2] = target: Akt2 (PKB beta) (human (printed as '(h)'), UniProt P31751 1-481, limits assumed)
[3] = target: c-Src (h) (human (printed as '(h)'), UniProt P12931 1-536, limits assumed)

Chain of Akt2 (PKB beta) (human (printed as '(h)'), UniProt P31751 1-481, limits assumed) (P31751 whole entry): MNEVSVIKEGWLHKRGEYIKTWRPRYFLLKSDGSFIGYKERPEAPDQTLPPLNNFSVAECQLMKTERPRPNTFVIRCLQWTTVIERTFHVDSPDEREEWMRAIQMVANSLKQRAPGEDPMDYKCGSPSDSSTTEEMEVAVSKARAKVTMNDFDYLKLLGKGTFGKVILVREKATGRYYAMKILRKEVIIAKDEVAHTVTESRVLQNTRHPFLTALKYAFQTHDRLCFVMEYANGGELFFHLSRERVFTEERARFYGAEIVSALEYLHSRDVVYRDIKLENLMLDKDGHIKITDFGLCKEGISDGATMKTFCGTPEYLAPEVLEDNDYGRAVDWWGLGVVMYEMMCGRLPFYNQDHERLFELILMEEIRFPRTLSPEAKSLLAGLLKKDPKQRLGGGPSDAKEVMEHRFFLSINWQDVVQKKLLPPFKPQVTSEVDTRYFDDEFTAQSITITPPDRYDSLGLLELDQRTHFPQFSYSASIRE
Chain of Akt3 (PKB gamma) (human (printed as '(h)'), UniProt Q9Y243 1-479, limits assumed) (Q9Y243 whole entry): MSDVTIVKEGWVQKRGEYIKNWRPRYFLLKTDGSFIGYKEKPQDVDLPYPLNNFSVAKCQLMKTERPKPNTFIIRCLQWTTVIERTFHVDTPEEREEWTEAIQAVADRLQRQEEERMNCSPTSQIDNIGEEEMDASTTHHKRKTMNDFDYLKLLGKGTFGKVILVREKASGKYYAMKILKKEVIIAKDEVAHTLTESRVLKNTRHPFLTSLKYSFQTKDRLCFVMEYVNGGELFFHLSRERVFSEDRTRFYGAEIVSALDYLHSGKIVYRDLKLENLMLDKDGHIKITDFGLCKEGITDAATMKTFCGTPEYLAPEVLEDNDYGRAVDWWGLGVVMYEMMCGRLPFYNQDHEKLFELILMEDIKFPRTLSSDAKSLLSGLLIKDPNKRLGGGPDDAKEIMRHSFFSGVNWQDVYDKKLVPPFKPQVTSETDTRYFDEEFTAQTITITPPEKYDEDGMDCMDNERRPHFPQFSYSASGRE

Inhibitory Activity (%), cell-free in vitro kinase assay, peptide 50 µM [1] [%]	Inhibitory Activity (%), cell-free in vitro kinase assay, peptide 50 µM [2] [%]	Inhibitory Activity (%), cell-free in vitro kinase assay, peptide 50 µM [3] [%]	Binder
2	0	3	RAAKAARAAK [RAAKAARAAK peptide]
52	0	27	RAKAKAAAAR [RAKAKAAAAR peptide]
8	3	53	RSKAKNPLYR [RSKAKNPLYR peptide (β6 integrin derived)]
93	89	43	RVKVKVVVVR [RVKVKVVVVR peptide]
